B1: OR4K15 (parent)
chain: GUUAACGGUCAUAGGCCAUGGAAACUAGGAGCACCAUUUCGCUGCCAGUGAAGAAAUGAACAAAGAAAAUCUGGGCCAGGCAGGCAUCAAAAGAAAUAGUCUUGCGCUCAACCAGAAAGUCUGUAAUCAUUUUAAGGGUA

Variants of: B1
Experiment: self-cleavage, relative activity (ratio to wild type); higher = more cleavage; in vitro, sequencing; the parent is a self-cleaving ribozyme

Variant | self-cleavage
C45A C101U | 0.48
A47G A64U | 1.26
U43C A114G | 0.55
U43C A98U | 1.68
U49A U70A | 0.66
U43G A116G | 0.96
G44A U133C | 1.78
U49A A98U | 0.26
U49A A98G | 0.44
C45U A78U | 0.33
C46A C112U | 0.01
A47C A51G | 1.5
U49A A89C | 0.85
C46U G138U | 1.93
C45G A90G | 1.2
A47U A86G | 0.23
G44A A111G | 0.01
C46U A111G | 0.02
G48A A129G | 1.14
U43G A89G | 1.26
U49A U72A | 0.36
U49A U72C | 0.16
U43C A69U | 1.74
A47G A118U | 0.67

Variant | self-cleavage
A47U A114G | 0.21
G48C A63G | 1.45
U43C G58U | 0.07
U43C G58A | 0.64
U43G U103A | 1.15
A47G A60U | 1.4
C46U A55G | 1.14
U43C C113U | 0.04
U43C A64G | 1.66
U43C A64U | 1.82
G48A U70C | 0.31
A47G A95G | 1.71
U49A A90U | 1.26
A47U A64G | 0.61
U49A A62G | 0.7
G44U A63G | 1.46
G48A U72A | 0.2
U43C C109A | 0.36
A47C U97C | 0.33
G48U A118G | 1.08
A47G A94C | 1.1
G44A A117G | 1.66
G44A U130C | 0.64
U43G A54U | 1.97

Variant | self-cleavage
G48A A95G | 1.29
U43C A91G | 1.29
A47C A54G | 1.5
G44A U132A | 1.35
A47C U72A | 0.37
A47U G84U | 0.25
A47U G84A | 1.13
G48U U103C | 0.49
A47C A111U | 0.07
G44A G74A | 0.17
A47G A55G | 0.59
A47G A55U | 0.19
G48C A51G | 0.94
U49A A96G | 1.12
U49A A118G | 1.31
U43C G48A | 1.32
A47U U130C | 0.43
U43C A92U | 1.6
G44A A125C | 1.48
G44A A91G | 0.42
A47U A66G | 0.99
U43C U57C | 0.31
A47U A126G | 0.77
A47U U132G | 0.61

Variant | self-cleavage
A47U U57C | 0.75
U49A C105U | 0.15
G48A A68G | 1.7
G44C A52G | 1.4
G48A A66U | 1.33
A47U A59G | 0.62
C45U U127C | 0.56
U43G U100C | 2.82
A47U C101U | 0.22
A47U A111U | 0.06
A47U A140G | 0.91
G48A A90G | 0.76
A47G A111U | 0.12
C45U A82G | 0.27
C45A A116G | 1.32
A47G U132A | 1.55
U43G A114G | 0.27
U43G A114U | 0.1
C46U U102A | 1.59
C46U U102C | 1.84
A47G U122A | 1.11
A47G U122C | 0.62
U49A A59G | 1.44
A47U U127C | 0.59

Variant | self-cleavage
A47U U127A | 0.24
A47G G99A | 0.4
A47G G99U | 0.51
G44U A135G | 1.6
C46U U132C | 1.97
U49A A82U | 0.18
U43G A126G | 0.92
G48C A55G | 1.64
A47U A91U | 0.51
A47U A91G | 0.88
C45A A51G | 1.35
A47G G106A | 0
A47C A59C | 1.35
C46A A60G | 0.67
A47G U70A | 0.83
U49A A92G | 1.28
A47U A96G | 1.28
G44A U127C | 1.58
U43G A129G | 1.19
A47G A126G | 1
U43C A82U | 0.18
G48U A110G | 0.2
G48A A55G | 1.61
U43C A110U | 1.68

Variant | self-cleavage
A47U A89G | 0.86
A47U A89U | 0.95
A47G A56G | 1.03
U49A U100C | 2.15
C45U A96U | 1.55
A47G U100C | 1.85
C46A A56G | 1.81
C45U C77A | 0.42
A47C A90G | 1.61
U43C U124C | 1.13
A47G A69G | 0.93
A47G A69U | 1.35
U43C A68U | 1.74
U43C A68G | 1.21
C46U A47G | 0.79
C46U U131C | 2.02
U43C A95G | 2.15
U49A A68G | 0.95
C46U U72A | 0.14
G48U A94G | 0.54
A47G U133C | 1.99
U43C A63G | 1.8
U43C A63U | 0.91
G44A G93C | 1.87

Variant | self-cleavage
A47U A82C | 0.21
A47U A82U | 0.17
U43C U120A | 2.06
A47G A140U | 1.24
G48A U127A | 2.28
C46U A82U | 0.14
C46U A82G | 0.94
C46U A82C | 0.27
G44A A78G | 0.24
A47C A52G | 0.57
A47C U131C | 0.89
A47G U49C | 0.98
A47G U49A | 1.06
G48U A91G | 1
U49A A51C | 0.3
U49A A51U | 1.63
A47C A96G | 1.82
U49A G138U | 1.69
G48A A98U | 2.56
U43C C88U | 1.59
A47G A92U | 1.18
A47G A92C | 0.42
A47G G75U | 0.16

From the RNAGym collection of RNA variant scans (doi:10.7554/elife.90254)
